Drawing on PMC7126611, this text covers Kd for one sequence.

This series relates to His-PTB (polypyrimidine tract-binding protein, pETPTB), P26599-1. The experiment in a line: EMSA.

In the case of “GGGCCAGACACUGAUUAUAUGGUUCAUAUGGGUAAUUACCUUCCCUAGGCUAAGGACUAACUGGUAUAUACCAUAAUUAAA [SHFV 3'(+)NCR RNA]”, the Kd (usually a measure of binding affinity in units of concentration) is 7 nM.
